# In the DeepSol protein solubility set:
# Assay: soluble on expression in E. coli; label from the status in PepcDB or PDB records
row,Sequence,soluble on expression in E. coli
1,MKPEDFRTDNKRPLTGEEYLKSLQDGREIYIYGERVKDVTTHPAFRNAAASVAQLYDALHKPSMQDTLCWNTDTGSGGYTHKFFRVAKSADDLRQQRDAIAEWSRLSYGWMGRTPDYKAAFGCALGANPAFYGQFEQNARNWYTRIQETGLYFNHAIVNPPIDRHKPADEVKDVYIKLEKETDAGIIVSGAKVVATNSALTHYNMIGFGSAQVMGENPDFALMFVAPMDAEGVKLISRASYEMVAGATGSPFDYPLSSRFDENDAILVMDKVLIPWENVLIYRDFDRCRRWTMEGGFARMYPLQACVRLAVKLDFITALLKKSLECTGTVEFRGVQADLGEVVAWRNMFWALSDSMCSEATPWVNGAWLPDHAALQTYRVMAPMAYAKIKNIIERNVTSGLIYLPSSARDLNNPQIDQYLAKYVRGSNGMDHVERIKILKLMWDAIGSEFGGRHELYEINYSGSQDEIRLQCLRQAQSSGNMDKMMAMVDRCLSEYDQNGWTVSHLHNNDDINQLDKLLK,not soluble
2,MSLKIRLPEMIDYFRKENGWTMKEFGEKLGKSESAISKWIKGVRSPMVEDFDKMVNLFNTDPDTLMYGASDLSTTLSEINKISSQLEEPRQKVVLNTATNQLDEQNQEKKKESKVIPINKIPDDLPPYISRKILENFVMPTNTMEYEPDEDMVDVPILGRIAAGLPLDAVENFDGTRPVPAHFLSSARDYYWLMVDGHSMEPKIPFGSYVLIEAVPDVTDGTIGAVLFQDDCQATLKKVYHEIDCLRLVSINKEFKDQFATQDNPAAVIGQAVKVEIDLEGHHHHHH,soluble
3,ASMTGGQQMGRGSGSEFMENETHYAEAVIDNGAFGTRTIRFETGRLARQAAGSAVAYLDDDTMVLSATTASKNPKDQLDFFPLTVDVEERMYAAGKIPGSFFRREGRPSEDAILTCRLIDRPLRPSFKKGLRNEIQVVATIMALNPDHLYDVVAINAASASTQLAGLPFSGPIGGVRVALIRGQWVAFPTHTELEDAVFDMVVAGRVLEDGDVAIMMVEAEATEKTIQLVKDGAEAPTEEVVAAGLDAAKPFIKVLCKAQADLAAKAAKPTGEFPVFLDYQDDVLEALSAAVRPELSAALTIAGKQDREAELDRVKALAAEKLLPEFEGREKEISAAYRALTKSLVRERVIAEKKRIDGRGVTDIRTLAAEVEAIPRVHGSALFERGETQILGVTTLNMLRMEQQLDTLSPVTRKRYMHNYNFPPYSVGETGRVGSPKRREIGHGALAERAIVPVLPTREEFPYAIRQVSEALGSNGSTSMGSVCASTMSLLNAGVPLKAPVAGIAMGLISQEINGETHYVALTDILGAEDAFGDMDFKVAGTKEFVTALQLDTKLDGIPASVLAAALKQARDARLHILDVMMEAIDTPDEMSPNAPRIITVKIPVDKIGEVIGPKRQMINQIQEDTGAEITIEDDGTIYIGAADGPAAEAARATINGIANPTSPEVGERILGSVVKTTTFGAFVSLLPGKDGLLHISQIRKLAGGKRVENVEDVLGVGQKVQVEIAEIDSRGKLSLIPVIEGEEAASDEKKDDAEQ,soluble
4,MSQDNSEELIKVEKVEAFFYPIHGIPTMVLYLEDGREFKMFQIPPEIVIALNRLQEKRDYEELLRGDKRENIYDVLAFSSEIKDQLSKIINRVIINDVNEEYGVYIATVEFKFDGVIIEKQLIPSHAVFLAIVSNRPIYVKKNLVDEQEKQERKSGEDV,soluble
5,MVTFLGNPVSFTGKQLQVGDKALDFSLTTTDLSKKSLADFDGKKKVLSVVPSIDTGICSTQTRRFNEELAGLDNTVVLTVSMDLPFAQKRWCGAEGLDNAIMLSDYFDHSFGRDYALLINEWHLLARAVFVLDTDNTIRYVEYVDNINSEPNFEAAIAAAKAL,soluble
6,SKQESAAPNTPPTSQSPTPSAQFPRNDGDPQALWIFGYGSLVWRPDFAYSDSRVGFVRGYSRRFWQGDTFHRGSDKMPGRVVTLLEDHEGCTWGVAYQVQGEQVSKALKYLNVREAVLGGYDTKEVTFYPQDAPDQPLKALAYVATPQNPGYLGPAPEEAIATQILACRGFSGHNLEYLLRLADFMQLCGPQAQDEHLAAIVDAVGTMLPCFCPTEQALALV,soluble
7,MSRQEVGYPFHLGRTLKLPQDPPGMAAIYLQSCSGGLFAGETLHLQLHAGPHTQVHVSTGAATVAHSMLEQPARQTVTLIAETGALLEYLPMATILFPQARLHSVVNVTLHPNARVMLCDAFCLHVPPGSAGLPGFYRADLHIRCPAGTLLAGDRLALTGADLQRRLPGVSAELQALATFMLVGQDLPVDELKRALRDALRVVPESYLGVSALPNDCGVSVRIMTADAVALRSALHLAWACARQQLTGIAPRVRRKLEHHHHHH,not soluble
8,MENKYTHGVLFYHEHSGLKNINQGIGEVTTALSSICKHLSIQLSENEGDIIKYCQEIKTKNYAKDVDILFILGGDGTVNELINGVMTHDLQLPIGILPGGTFNDFTKTLNIAPNHKQASEQMISAQVGKYDVIKINNQYALNFVGLGLIVQNAENVQDGSKDIFGKLSYIGSTVKTLLNPTQFNYQLSIDDKTYSGETTMILTANGPFIGGSRIPLTDLSPQDGELNTFIFNEQSFSILNDIFKKRDSMNWNEITQGIEHIPGKKISLTTDPAMKVDIDGEISLETPIDIEVIPNAIQLLTVNDLLEHHHHHH,not soluble
9,MGSDKIHHHHHHMPSPLLRRENKIKILRYILKNGKTTRNQLASNLNLAHSTLSYIIDELLDEGFLVFEEIKKKRGRPYQILSVNPEKFTAIGVKVGREEVRGVLFDARMNPLKEHRVQILSGMRNNDGYTRALRETIEQLRSENLLGVGICSSGIVKEGRVVVSHVMNVKDWDPRKVLKDLERILVMNDSDALCREISQRVNTDFLLVSYGVGIGASLWKDKKIHHIEMGHMLAASEGKCYCGQTGCLEYHSSEYAVLKSYLGKEIDFEDFITSEEEKYRQTIEELREKAREDFDSVKVHYEKAFKTFSVVLGNVIMGSGVSRVFFAGEGVVSEEMVKILEELVKVRFNRDFVGEVQFQVADANWMLGAARAVVDKYLPYIVK,not soluble
10,QLVLVKRSTPPVAVIWSAPDCPYCRKLEKTLEQENASVYVVPVGVAENGFRQAARVYCADDPSQAWRKVMQGSEINGRAKTSCQYPRDMLNDIGFFLGMGRMATPIVVFADGSTVIGWNDQNAWMLLRKKISEQIFFND,not soluble
11,MFVMIIQGQVLGGYPRSRYVRRALRRLEQGEISAVELMGVLNQASSAVIGAQVSQGFPYVVDGMLDWHDIFRPFAEAWRNVTPTGLLRYFDNNFFYRIPLFTGEPEPTDPVLAPRVLSYSQVAEPAKLKVVVPGPVTFTLMSRNESGISDEELAEAIANLLADEVEKAVKAGAGFVQVDEPILSEPKATRDHALLAAELAGVIASRSGSAETMLSVYFYPPKPEVYEALLEARVDYLMVDLVAAGSKGLEVITGKGAGEGLALGVIDARSIYSESLEKVEAPVRRIVESVKPEKIILTTSTWLDLIPYRYALRKTALLGRYTYALAEKLGAQIAVAGGEMAGDPLEHHHHHH,not soluble
12,MPIVNVKWQKEKYVVEVDTSAPPMVFKAQLFALTQVVPERQKVVIMGRTLGDDDWEGITIKENMTIMMMGSVGEIPKPPTVLEKKQANRDKQAEEISALYPCGLANLGNTCYFNSCVQMLKEVNELVLKPAEEMRIREHNDRLCHNLATLFNSLRDKDRALRSKGEPIKPFAAILTLSDSFPQFEKFKQQDANECLVSIMSNVTRIYGLSGWNIESLFRIQTETTMKCLESDEVSEKKVERNNQLTCYVNQDVRFLQTGIKAGFEEEMTRNSEELNRDAKWQKNTQISRLPKYLTVNINRFFYKESTKTNAKILKSVQFPMQLDTYDLCSQELKDKLVARRADIKLEEDAKLERELRKKVLDKEQGDKIFDDGVALPTAFEDDAGSNNSGFYDLKGIITHKGRSSQDGHYVAWMRSSEDGKWRLFDDEHVTVVDEEAILKTSGGGDWHSAYVLLYEARVIKQFPELPPAPVPTEVAADTAEPMEVSEKQ,not soluble
13,MNIDAVVEFTKKHLKDEKTGHDFYHGQRVANLASKMYLEDHPDAHADSRMVAIIKSGGYLHDTIDEKVCDNPDKVIAEIKELLPEVGFTDLEVWDILFTIQHMSFSANIEHHYHLPLSGQYVQDADRLESLGAMGIARAFTYGGKHGNKIYDPEIKPEKLVSHDQYRNHVETTINHFYEKLFHLADTMNTPAMKKEANRRTEYMHNFVQEFMNEWNVLEHHHHHH,soluble
14,SFFMGEKTFYHIKKENLILKARMFGKITSLGISGFVMQGTNCLVQIVCNKMLFMYGGDMYVGIMTVINSVREILSVPGSTLGSGAQPVLGYNYGAKQYERVRKA,not soluble
15,MALVVQKYGGSSLESAERIRNVAERIVATKKAGNDVVVVCSAMGDTTDELLELAAAVNPVPPAREMDMLLTAGERISNALVAMAIESLGAEAQSFTGSQAGVLTTERHGNARIVDVTPGRVREALDEGKICIVAGFQGVNKETRDVTTLGRGGSDTTAVALAAALNADVCEIYSDVDGVYTADPRIVPNAQKLEKLSFEEMLELAAVGSKILVLRSVEYARAFNVPLRVRSSYSNDPGTLIAGSMEDIPVEEAVLTGVATDKSEAKVTVLGISDKPGEAAKVFRALADAEINIDMVLQNVSSVEDGTTDITFTCPRSDGRRAMEILKKLQVQGNWTNVLYDDQVGKVSLVGAGMKSHPGVTAEFMEALRDVNVNIELISTSEIRISVLIREDDLDAAARALHEQFQLGGEDEAVVYAGTGR,soluble
16,MGSDKIHHHHHHMKYVVVSGGVISGIGKGVLASSTGMLMKTLGLKVTSIKIDPYMNIDAGTMSPLEHGECFVLDDGGETDLDLGNYERYLGVTLTKDHNITTGKIYSHVIAKERKGDYLGKTVQIVPHLTNAIQDWIERVAKIPVDDTGMEPDVCIIELGGTVGDIESAPFVEALRQFQFKVGKENFALIHVSLVPVIHGEQKTKPTQAAIKGLRSLGLVPDMIACRCSETLDKPTIDKIAMFCHVGPEQVVNVHDVNSTYHVPLLLLEQKMIDYLHARLKLDEISLTEEEKQRGLELLSKWKATTGNFDESMETVKIALVGKYTNLKDSYLSVIKALEHSSMKCRRKLDIKWVEATDLEPEAQESNKTKFHEAWNMVSTADGILIPGGFGVRGTEGMVLAARWARENHIPFLGVCLGLQIATIEFTRSVLGRKDSHSAEFYPDIDEKNHVVVFMPEIDKETMGGSMRLGLRPTFFQNETEWSQIKKLYGDVSEVHERHRHRYEINPKMVDELENNGLIFVGKDDTGKRCEILELKNHPYYIATQYHPEYTSKVLDPSKPFLGLVAASAGILQDVIEGKYDLEAGENKFNF,not soluble
17,TPNEMGYLHVIENLTKKRMTPLRPPTEKEAFKGQLSAAVETIESDLEENGLDKYLESAEALLEKYSATDLAALLLKTVAKDPADAVPVKITPERPLPSNKKGFNKNGR,not soluble
18,AERPTLPIPDLLTTDARNRIQLTIGAGQSTFGGKTATTWGYNGNLLGPAVKLQRGKAVTVDIYNQLTEETTLHWHGLEVPGEVDGGPQGIIPPGGKRSVTLNVDQPAATCWFHPHQHGKTGRQVAMGLAGLVVIEDDEILKLMLPKQWGIDDVPVIVQDKKFSADGQIDYQLDVMTAAVGWFGDTLLTNGAIYPQHAAPRGWLRLRLLNGCNARSLNFATSDNRPLYVIASDGGLLPEPVKVSELPVLMGERFEVLVEVNDNKPFDLVTLPVSQMGMAIAPFDKPHPVMRIQPIAISASGALPDTLSSLPALPSLEGLTVRKLQLSMDGGANKINGQAFDMNKPMFAAAKGQYERWVISGVGDMMLHPFHIHGTQFRILSENGKPPAAHRAGWKDTVKVEGNVSEVLVKFNHDAPKEHAYMAHCHLLEHEDTGMMLGFTVGHHHHH,soluble
19,MSLKWNRPAGSLSATLILAHGAGAPMDSPFMERIAELLAAQGIAVARFEFPYMAQRREDGRKRPPNPQAQLLDCWRRVHAQVRETLDGPLALGGKSMGGRMASLLADELGADALVCLGYPFYAAGKPEKPRVAHLAGLRTPTLIVQGERDALGNREAVAGYALAPTIRLHWLAAADHDLKPLKASGLTHEQHLAATAREVAGFLRGLQGH,not soluble
